Series [1] deals with T1, PcAtf21 del319-319 (Penicillium chrysogenum Wis54-1255 (P. rubens Wis54-1255)) (UniProt B6HLX5).
T1 sequence: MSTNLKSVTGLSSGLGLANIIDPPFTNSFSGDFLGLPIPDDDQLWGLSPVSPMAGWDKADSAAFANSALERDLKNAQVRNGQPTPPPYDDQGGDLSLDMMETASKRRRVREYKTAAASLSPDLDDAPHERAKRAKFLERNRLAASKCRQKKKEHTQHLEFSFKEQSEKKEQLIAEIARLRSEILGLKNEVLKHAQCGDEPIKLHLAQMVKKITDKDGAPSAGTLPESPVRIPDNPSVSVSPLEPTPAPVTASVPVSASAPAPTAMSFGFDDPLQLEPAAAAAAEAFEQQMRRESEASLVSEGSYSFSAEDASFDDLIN
The series is described as follows: EMSA. To be noted: LightShift binding buffer 1X, about 10% glycerol, 5 mM MgCl2, 20 fmol biotin probe, 10 ug protein, 20 uL, room temperature 20 min; 5% native PAGE in 0.5X TBE ….

A further series deals with T2, PcAtf21 (Penicillium chrysogenum Wis54-1255 (P. …, UniProt B6HLX5 1-318, del319-319)).
T2 sequence: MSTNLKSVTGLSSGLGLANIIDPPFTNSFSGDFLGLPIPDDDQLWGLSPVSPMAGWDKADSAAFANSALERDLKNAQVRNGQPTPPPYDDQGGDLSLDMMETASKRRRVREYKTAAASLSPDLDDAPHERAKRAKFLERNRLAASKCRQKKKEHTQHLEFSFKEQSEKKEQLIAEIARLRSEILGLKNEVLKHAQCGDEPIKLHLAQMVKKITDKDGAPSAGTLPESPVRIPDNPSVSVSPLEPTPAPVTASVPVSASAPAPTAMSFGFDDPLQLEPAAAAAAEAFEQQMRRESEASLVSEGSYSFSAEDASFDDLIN
The series is described as follows: EMSA; LightShift binding buffer 1X, about 10% glycerol, 5 mM MgCl2, 20 fmol biotin probe, 10 ug protein, 20 uL, room temperature 20 min; 5% native PAGE in 0.5X TBE; pH and salt not given. The conditions noted are these: protein: recombinant; tags: C-terminal c-myc-6xHis; chain copies: 2; label: 3' biotin; blunt.

For the molecule “AACATCGCCGTCGTTGAGTGCACGTTGCCTACTCTCTCGTGGCTTGGCTGGGCCCACGAGCCCGATTGACTCGACGGTGTTACTTGGGTATCTATGGCCCCGTTTTCTGGCACGGTAATGATAAGTACTTACTAGTCTTCGAGCGGGGGAGTGTTGCTCTGCCCGAGCATCAACGATTGGCCTGA (double strand) [probe 4]”, the binding result in series [1] is recorded as “no binding”.

Regarding “TGTTTATGCTGAGACAACCTGGAGACATTATACGCTTGCAGCCCAGATGCTTACTGGATGGGGCCGCTGGAGCCAGTGTAAAATTAGTAACCGTATCTCGAAGTCGGAGGGTCTTTGGTGGTCTGAGATTTCAGTCGGTCCGCACCGTGGCATTTGCAGACGGTGCGATCAGGCCAATCGTTGATGCTCGG (double strand) [probe 5]”, the binding entry in series [1] is “no binding”.

B1: NorR4 (dsDNA)
DNA 1: TTTCAACATTTCTTGAGTACTTTTCTAAGCCGTGACATAATGAACGGATCA
DNA 2: TGATCCGTTCATTATGTCACGGCTTAGAAAAGTACTCAAGAAATGTTGAAA
In the case of B1, the binding result in the series with PcAtf21 is on record as “binds”.

B2: penDE-CRE123 (dsDNA)
DNA 1: AGGTCCTGCATTAGCGTACGCCCCAGGTTTAGATCAAAGTTACGTAATTTATATGTA
DNA 2: TACATATAAATTACGTAACTTTGATCTAAACCTGGGGCGTACGCTAATGCAGGACCT
For B2, the binding result with PcAtf21 was “no binding”.

These data come from PMC8977021, “bZIP transcription factors PcYap1 and PcRsmA link oxidative stress response to secondary metabolism and development in Penicillium chrysogenum”.
